# US9081020B2, “Mutant proteins and methods for selecting them” (Heptares Therapeutics Limited, priority 2008, dated 2015)
# Read-outs that look alike come from different tables or passages of the source.
# Tests used:
# M1 mAChR [1] = assay type: physicochemical; conditions: for % 3H-NMS retained BOG / % loss/wt / mean % retained: 0.82% BOG; for % 3H-NMS retained BOG: whole E. coli BL21 cells, single culture; for % loss/wt: % loss relative to wild-type control; for mean % retained: mean of the cultures
# Method: This concentration was determined by analysing wild-type M1 mAChRs expressed in the inner cell membranes of intact E. Coli strain BL21 cells. The cells were pre-labelled with the radiolabelled antagonist 3H—N-methyl scopolamine and resuspended to a pre-determined cell density (Absorbance at 600 nm=2.0) in a chosen buffer (in this case 50 mM sodium phosphate, 1 mM EDTA, pH 7.5). […] The wild-type M1 mAChRs were titrated by the addition of increasing concentrations of beta octyl glucoside dissolved in the same buffer for different times (e.g. 1 h, 2 h, 3 h, 5 h, 15 h) and at different temperatures (e.g. 4° C., 15° C.). The loss of specifically-bound radioligand was then measured after recovering the cells by centrifugation (15000×g, 15 min.). In the example, the centrifugation step was performed on duplicate 1 ml aliquots of the cells. The experiment was repeated 3 times. […] It will be appreciated that the cell density, detergent concentration and other parameters of the assay may be varied to adjust the loss of activity as appropriate.
# (a) A state of in-situ destabilisation of a particular membrane protein in a particular cell membrane as a result of the addition of a particular concentration of a particular detergent, can be defined by the loss of the characteristic specific ligand binding activity of the membrane protein for a particular ligand of interest in the presence of a defined concentration of a particular detergent molecule or other solubilising agent.
# A preferred version of the assay is destabilisation of a membrane protein-ligand complex in a detergent-enriched membrane. The membrane protein, either in a membrane preparation, or in intact cells in-vivo or ex-vivo, is pre-incubated with a labelled version of the ligand, the label, for instance, being a radioactive label, or a fluorescent label, and the binding step preferably being allowed to proceed to equilibrium, defined as the achievement of a time-invariant level of binding. To define membrane protein-independent, or non-specific, binding the binding step is performed with the addition of a second non-labelled ligand, called the competing ligand, having an appropriate membrane protein-specific pharmacology, at a concentration sufficient fully to occupy the binding sites of the membrane protein and thereby exclude the binding of the labelled ligand. The difference between the binding of the labelled ligand in the absence and presence of the competing ligand is defined as the specific binding of the labelled ligand. Measurement of binding requires a suitable method for separating and measuring bound ligand. Characteristically, this involves centrifugation of intact cells or membranes for a time and at a centrifugal force adequate to pellet them (for instance, 15000×g for 15 min in the case of E. coli cells, or 100,000×g for plasma membrane preparations), or filtration of a membrane suspension e.g. through a suitable filter paper such as glass fibre paper e.g. GF-B or GF-C followed by counting of radioactivity. Alternatively, it might involve the measurement of an optical signal such as enhancement of fluorescence emission in the case of fluorescent ligands.
# To perform the in-situ destabilisation assay, a pre-determined concentration of the detergent or other destabilising agent of choice is mixed with a membrane or cell suspension containing the pre-labelled membrane protein in an appropriate buffer composition at a particular temperature and for a particular time, determined as described below.
# M1 mAChR [2] = assay: thermal stability (Tm) of partially purified [3H]NMS-labelled receptors in 0.1% dodecyl-β-maltoside; assay type: physicochemical, rat
# Method: For measurements of thermal melting temperature (Tm), [3H]NMS-labelled receptors were partially purified by immobilized metal ion affinity chromatography from cultures grown from single clones expressed in E. Coli BL21 cells, essentially as described in Hulme and Curtis, 1998 (21). Tm measurements were carried out after gel-filtration of partially purified receptors into 50 mM sodium phosphate, 5 mM β-mercaptoethanol and 0.1% dodecyl-β-maltoside (DDM), using an incubation time of 30 min. Values were tabulated as mean±range/SEM of 2 or more independent measurements (Table 3).
molecule,measurement,setting,value
"L65A/I73A: M1 mAChR double mutant, Ala mutation on L65A background (protein, UniProt P11229 1-460, looked up, variant L65A I73A) Muscarinic acetylcholine …: MNTSAPPAVSPNITVLAPGKGPWQVAFIGITTGLLSLATVTGNLLVLISFKVNTELKTVNNYFLASLACADLAIGTFSMNLYTTYLLMGHWALGTLACDLWLALDYVASNASVMNLLLISFDRYFSVTRPLSYRAKRTPRRAALMIGLAWLVSFVLWAPAILFWQYLVGERTVLAGQCYIQFLSQPIITFGTAMAAFYLPVTVMCTLYWRIYRETENRARELAALQGSETPGKGGGSSSSSERSQPGAEGSPETPPGRCCRCCRAPRLLQAYSWKEEEEEDEGSMESLTSSEGEEPGSEVVIKMPMVDPEAQAPTKQPPRSSPNTVKRPTKKGRDRAGKGQKPRGKEQLAKRKTFSLVKEKKAARTLSAILLAFILTWTPYNIMVLVSTFCKDCVPETLWELGYWLCYVNSTINPMCYALCNKAFRDTFRLLLLCRWDKRRWRKIPKRPGSVHRTPSRQC",Stability (βOG in-situ) % L65A control,"M1 mAChR [1]; 0.82% β-octyl glucoside, 3 h, 4° C., % loss(control)/% loss(mutant), mean±SEM of 3",46 ± 2 % L65A control
same,"in-situ stability relative to L65A, in words","M1 mAChR [1]; 0.82% β-octyl glucoside, L65A background",significantly reduced stability
same,Tm (0.1% DDM),"M1 mAChR [2]; 0.1% DDM, incubation time 30 min, mean±range/SEM",27.0 ± 0.5 °C
same,"thermal stability (Tm) relative to L65A, in words","M1 mAChR [2]; partially purified mutants, 0.1% DDM",reduced stability
"M384/27: Sequencing established that M384/27 is M384C (M1 mAChR) (protein, UniProt P11229 1-460, looked up, variant M384C) Muscarinic acetylcholine …: MNTSAPPAVSPNITVLAPGKGPWQVAFIGITTGLLSLATVTGNLLVLISFKVNTELKTVNNYFLLSLACADLIIGTFSMNLYTTYLLMGHWALGTLACDLWLALDYVASNASVMNLLLISFDRYFSVTRPLSYRAKRTPRRAALMIGLAWLVSFVLWAPAILFWQYLVGERTVLAGQCYIQFLSQPIITFGTAMAAFYLPVTVMCTLYWRIYRETENRARELAALQGSETPGKGGGSSSSSERSQPGAEGSPETPPGRCCRCCRAPRLLQAYSWKEEEEEDEGSMESLTSSEGEEPGSEVVIKMPMVDPEAQAPTKQPPRSSPNTVKRPTKKGRDRAGKGQKPRGKEQLAKRKTFSLVKEKKAARTLSAILLAFILTWTPYNICVLVSTFCKDCVPETLWELGYWLCYVNSTINPMCYALCNKAFRDTFRLLLLCRWDKRRWRKIPKRPGSVHRTPSRQC",% 3H-NMS retained BOG,"M1 mAChR [1]; 3 h, 4° C., listed as M384/27 1",63%
same,% 3H-NMS retained BOG,"M1 mAChR [1]; 3 h, 4° C., listed as M384/27 2",73%
same,% loss/wt,"M1 mAChR [1]; 3 h, 4° C.",0.6
same,mean % retained,"M1 mAChR [1]; 3 h, 4° C.",68%
"I73L: M1 mAChR mutant, substitution of another aliphatic amino acid at Ile 73 (protein) MNTSAPPAVSPNITVLAPGKGPWQVAFIGITTGLLSLATVTGNLLVLISFKVNTELKTVNNYFLLSLACADLLIGTFSMNLYTTYLLMGHWALGTLACDLWLALDYVASNASVMNLLLISFDRYFSVTRPLSYRAKRTPRRAALMIGLAWLVSFVLWAPAILFWQYLVGERTVLAGQCYIQFLSQPIITFGTAMAAFYLPVTVMCTLYWRIYRETENRARELAALQGSETPGKGGGSSSSSERSQPGAEGSPETPPGRCCRCCRAPRLLQAYSWKEEEEEDEGSMESLTSSEGEEPGSEVVIKMPMVDPEAQAPTKQPPRSSPNTVKRPTKKGRDRAGKGQKPRGKEQLAKRKTFSLVKEKKAARTLSAILLAFILTWTPYNIMVLVSTFCKDCVPETLWELGYWLCYVNSTINPMCYALCNKAFRDTFRLLLLCRWDKRRWRKIPKRPGSVHRTPSRQC",extra increment of stability (full thermal stability assay),M1 mAChR [2]; 0.1% dodecyl maltoside,0.9 °C
"M384/40: Sequencing established that M384/40 is M384G (M1 mAChR) (protein, UniProt P11229 1-460, looked up, variant M384G) Muscarinic acetylcholine …: MNTSAPPAVSPNITVLAPGKGPWQVAFIGITTGLLSLATVTGNLLVLISFKVNTELKTVNNYFLLSLACADLIIGTFSMNLYTTYLLMGHWALGTLACDLWLALDYVASNASVMNLLLISFDRYFSVTRPLSYRAKRTPRRAALMIGLAWLVSFVLWAPAILFWQYLVGERTVLAGQCYIQFLSQPIITFGTAMAAFYLPVTVMCTLYWRIYRETENRARELAALQGSETPGKGGGSSSSSERSQPGAEGSPETPPGRCCRCCRAPRLLQAYSWKEEEEEDEGSMESLTSSEGEEPGSEVVIKMPMVDPEAQAPTKQPPRSSPNTVKRPTKKGRDRAGKGQKPRGKEQLAKRKTFSLVKEKKAARTLSAILLAFILTWTPYNIGVLVSTFCKDCVPETLWELGYWLCYVNSTINPMCYALCNKAFRDTFRLLLLCRWDKRRWRKIPKRPGSVHRTPSRQC",% 3H-NMS retained BOG,"M1 mAChR [1]; 3 h, 4° C., listed as M384/40 1",71%
same,% 3H-NMS retained BOG,"M1 mAChR [1]; 3 h, 4° C., listed as M384/40 2",82%
same,% loss/wt,"M1 mAChR [1]; 3 h, 4° C.",0.44
same,mean % retained,"M1 mAChR [1]; 3 h, 4° C.",76.5%
L148A: M1 mAChR mutant L148A (protein) MNTSAPPAVSPNITVLAPGKGPWQVAFIGITTGLLSLATVTGNLLVLISFKVNTELKTVNNYFLLSLACADLIIGTFSMNLYTTYLLMGHWALGTLACDLWLALDYVASNASVMNLLLISFDRYFSVTRPLSYRAKRTPRRAALMIGAAWLVSFVLWAPAILFWQYLVGERTVLAGQCYIQFLSQPIITFGTAMAAFYLPVTVMCTLYWRIYRETENRARELAALQGSETPGKGGGSSSSSERSQPGAEGSPETPPGRCCRCCRAPRLLQAYSWKEEEEEDEGSMESLTSSEGEEPGSEVVIKMPMVDPEAQAPTKQPPRSSPNTVKRPTKKGRDRAGKGQKPRGKEQLAKRKTFSLVKEKKAARTLSAILLAFILTWTPYNIMVLVSTFCKDCVPETLWELGYWLCYVNSTINPMCYALCNKAFRDTFRLLLLCRWDKRRWRKIPKRPGSVHRTPSRQC,% 3H-NMS retained BOG,"M1 mAChR [1]; 3 h, 4° C., listed as L148A 1",74%
same,% 3H-NMS retained BOG,"M1 mAChR [1]; 3 h, 4° C., listed as L148A 2",69%
same,% loss/wt,"M1 mAChR [1]; 3 h, 4° C.",0.54
same,mean % retained,"M1 mAChR [1]; 3 h, 4° C.",71.5%
"I383/21: Sequencing established that I383/21 is I383G (M1 mAChR) (protein, UniProt P11229 1-460, looked up, variant I383G) Muscarinic acetylcholine …: MNTSAPPAVSPNITVLAPGKGPWQVAFIGITTGLLSLATVTGNLLVLISFKVNTELKTVNNYFLLSLACADLIIGTFSMNLYTTYLLMGHWALGTLACDLWLALDYVASNASVMNLLLISFDRYFSVTRPLSYRAKRTPRRAALMIGLAWLVSFVLWAPAILFWQYLVGERTVLAGQCYIQFLSQPIITFGTAMAAFYLPVTVMCTLYWRIYRETENRARELAALQGSETPGKGGGSSSSSERSQPGAEGSPETPPGRCCRCCRAPRLLQAYSWKEEEEEDEGSMESLTSSEGEEPGSEVVIKMPMVDPEAQAPTKQPPRSSPNTVKRPTKKGRDRAGKGQKPRGKEQLAKRKTFSLVKEKKAARTLSAILLAFILTWTPYNGMVLVSTFCKDCVPETLWELGYWLCYVNSTINPMCYALCNKAFRDTFRLLLLCRWDKRRWRKIPKRPGSVHRTPSRQC",% 3H-NMS retained BOG,"M1 mAChR [1]; 3 h, 4° C., listed as I383/21 1",70%
same,% 3H-NMS retained BOG,"M1 mAChR [1]; 3 h, 4° C., listed as I383/21 2",62%
same,% loss/wt,"M1 mAChR [1]; 3 h, 4° C.",0.64
same,mean % retained,"M1 mAChR [1]; 3 h, 4° C.",66%
